Test results taken from article PMC7535911.
Where two headings read alike, the source gives them in different places.

Assays:
[1] = target: ubiquitin-7-amino-4-methyl coumarin (Ub-AMC) (UniProt P0CG47)
[2] = target: ubiquitin-7-amino-4-methyl coumarin (Ub-AMC) (UniProt P0CG47); remark: listed apart in the source

Substance	DUB activity in vitro with Ub-AMC as substrate (Kapp, percent of WT) [1]	DUB activity in vitro with Ub-AMC as substrate (Kapp, percent of WT) [2]
TYMV PRO/DUB E759A (enzyme)	137 % of WT	
TYMV PRO/DUB N760A (enzyme)	135 % of WT	
TYMV PRO/DUB N760A/R844A (enzyme)		344 % of WT
TYMV PRO/DUB R844A (enzyme)		320 % of WT
TYMV PRO/DUB T763A (enzyme)	89 % of WT	
